Source: patent publication US9499823B2, “Constructs expressing chimeric receptors and use thereof for the controlled activation of defence response to pathogens in plants” (priority 2009, dated 2016)
Entries after “also recorded” stand apart in the source; their conditions may differ.

Assays:
[1] = system: ethylene biosynthesis in tobacco leaves; assay: Induction of ethylene biosynthesis in agroinfiltrated tobacco leaf explants; format: cell-based, Nicotiana tabacum; details: elfl8 10 μM, 2 h
Procedure: F) Induction of ethylene biosynthesis in agroinfiltrated tobacco leaves expressing the fluorescent EFR, FLS2, TMC, eJMC and eJMC^Y859A. NC: negative control, represented by agroinfiltrated leaf tissues expressing fluorescent EFR or FLS2 and elicited with flg22 or elfl8, respectively. Results are averages±standard error (n=3).
Excised infiltrated leaf sectors were stimulated for 2 h with water or the elicitor ([…] and 100 μg/ml for OGs). Values are means±s.e.m. (N=3).
E) Induction of ethylene biosynthesis in agroinfiltrated tobacco leaves expressing EFR, WAK1, WEG and EWAK. Each construct was stimulated for 2 h with elfl8 (10 μM) or OGs (100 μg/mL). NC: negative control, represented by agroinfiltrated leaf tissue expressing EFR or FLS2 when OGs or elfl8, respectively, were used for elicitation. Error bars indicate the standard error of three independent replicates.
(A) Induction of ethylene biosynthesis in agroinfiltrated tobacco explants expressing EFR, WAK1, WEG and EWAK. […] Agroinfiltrated leaf tissues expressing EFR or WEG and elicited with OGs or elfl8 respectively, represented our negative control. Values are means±s.e.m. (N=3). (B) Elicitor-induced gene expression in untransformed Col-0 and Col-0 efr plants, and in transgenic Arabidopsis Col-0 efr plants stably expressing WEG. Accumulation of At3g22270 and At4g37640 transcripts was analysed by semi-quantitative PCR, using the UBQ5 gene for normalization. Adult leaves were syringe-infiltrated with water, OGs (25 μg/ml) or elfl8 (10 μM) for 3 h. The experiment was repeated three times with similar results. The same experiment was performed in a second independent transgenic line expressing WEG with similar results.
Approximately 150 mg of tobacco agroinfiltrated leaf were cut in small slices and extensively washed with sterile distilled water. The explants were placed in sealed 10 mL flasks containing 2 mL of sterile water alone or supplemented with 100 mg L^−1 OGs, or 1 μM flg22 or 10 μM elfl8. 450 μl headspace samples were withdrawn from the vial after 2 h treatment and analyzed by gas chromatography-mass spectrometry using an Agilent 6850A gas chromatograph coupled to a 5973N quadrupole mass selective detector (Agilent Technologies, Palo Alto, Calif., USA). Chromatographic separations were carried out an HP Plot-Q fused-silica capillary column (30 m×0.32 mm i.d.) coated with polystyrene-divinylbenzene (film thickness 0.20 μm) as stationary phase. Injection mode: splitless at a temperature of 220° C. The initial temperature of the oven was held at 50° C. for 8 min then ramped to 220° C. at a rate of 15° C./min and held for 5 min. Helium was used as carrier gas at a constant flow of 1.0 ml/min. Mass spectra were collected both in full scan and in SIM mode monitoring the ions m/z m/z 26, m/z 27 and m/z 28 (ionization energy 70 eV; ion source 280° C.; ion source vacuum 10^−5 Torr).

[2] = system: Pseudomonas syringae DC3000; assay: Pseudomonas DC3000 infection of Arabidopsis Ws-0 plants by spraying; format: in vivo; details: transgenic Ws-0 plants vs Ws-0 wild type, 4 days post infection
Source text: C) Pseudomonas DC3000 infections. (Left Panel) Symptoms disease of wild type and transformed plants after 4 days post infection. (Right panel) Growth of Pseudomonas syringae DC3000 after 4 day post infection. ***, p<0.005.
The authors therefore infected A. thaliana plants by spraying Pst DC3000 bacteria onto leaf surfaces. […] Higher resistance of eJMC plants, compared to Ws-0 wild-type plants, was found in all of three independent experiments.

[3] = system: oxidative burst in tobacco leaves; assay: Oxidative burst, luminol-dependent photon counting in agroinfiltrated tobacco leaf slices; format: cell-based, Nicotiana tabacum; details: 10 μM elfl8, after 15 min
Procedure: D) Oxidative burst in tobacco leaves transiently expressing eJMC, EFR and EWAK. Photon counting was realized using tobacco leaves slices in a solution of luminol and peroxidase, during treatment with 10 μM elfl8. eJMC- and EFR-expressing explants were used as a negative and a positive control, respectively. Experiment was repeated at least 6 times on two independent replicated.
(C) Oxidative burst in agroinfiltrated tobacco leaves expressing EWAK. Leaves expressing eJMC and EFR were used as a negative and a positive control, respectively. The burst was measured by photon counting using leaf slices incubated in a solution containing 10 μM elfl8, luminol and peroxidase. The experiment was repeated at least 6 times with two independent replicates.
(§1) 3,3′-diaminobenzidine (DAB) staining, callose deposition and gene resistance analysis were assayed as described (Galletti et al., 2008). For measuring active oxygen species released by tobacco agroinfiltrated plants after elicitor treatment, the authors used a modified luminol-dependent assay (Gomez et al., 1999). Slices, corresponding to approximately 30 mg fresh weight, were transferred to assay tubes containing 1 μM flg22 or 10 μM elfl8 in aqueous solution supplied with 40 μM luminol (SIGMA). Chemo-luminescence was measured in a liquid scintillation counter (LS-6500, Beckman) after 5 and 15 min upon addition of elicitors.

[4] = system: Agrobacterium tumefaciens GV3101; assay: Growth of Agrobacterium in N. tabacum tissues transiently expressing receptor proteins; format: in vivo; details: 24 h after inoculation, tobacco tissues expressing the receptor, p<0.005
Procedure: F) Growth of Agrobacterium in N. tabacum tissues transiently expressing receptor proteins. Tobacco leaves were infiltrated with Agrobacterium expressing the indicated receptors and the number of Agrobacterium colony-forming units (c.f.u.) in the tissues was analyzed soon after infiltration (white bars) and 24 h (gray bars). EFR and eJMC were used as positive and negative controls, respectively. For each receptor, three samples were analyzed in five independent experiments. *, p<0.005.
(§2) (A) Growth of A. tumefaciens in N. tabacum tissues transiently expressing receptor proteins. Tobacco leaves were infiltrated with Agrobacterium carrying the indicated receptor constructs and the number of Agrobacterium colony-forming units (c.f.u.) in the tissues was analyzed immediately after infiltration (white bars) and after 24 h (gray bars). EFR and eJMC were used as positive and negative controls, respectively. For each receptor, three samples were analyzed in five independent experiments. Asterisks indicate statistically significant differences against control (Col-0 for WAK1 plants and Col-0 efr for WEG and EWAK plants). (B) Lesion development in Arabidopsis wild type (Col-0) and mutant Col-0 efr plants and in transgenic plants expressing WAK1, WEG and EWAK plants inoculated with B. cinerea at 48 h post-inoculation. Values are means±s.e.m. of at least 16 lesions. The same experiment was performed in a second independent transgenic line expressing WAK1 with similar results. Asterisks indicate statistically significant differences against control (Col-0 for WAK1 plants and Col-0 efr for WEG and EWAK plants).
(§3) Agrobacterium tumefaciens GV3101 strain infections was performed as described in Katagiri et al., (2002) and using a concentration of Agrobacterium corresponding at an OD600 of 1.0 in 10 mM MgCl2 and 600 μM acetosyringone. After 24 h of infiltration, serial dilution of Agrobacterium colonies were deposited on LB agar supplemented with gentamycin and rifampicin and grown for 2-3 days at 28° C. in the dark. At least 5 independent plants and 3 different leaves by plant, were used per experiment. Pectobacterium carotovorum subsp. carotovorum infections Pectobacterium carotovorum subsp. carotovorum (formely Erwinia carotovora; Gardan et al., 2003) (strain DMSZ 30169) was obtained from DSMZ GmbH (Germany). A liquid colture using 10 ml LB medium was prepared. After 16 h of growth at 28° C. on rotary shaker at 250 rpm, bacterial cells were harvested by centrifugation and the pellet was resuspended in 50 mM potassium phosphate buffer pH 7.0 corresponding to 5×10^7 CFU/ml.

B. cinerea = assay: Lesion development in Arabidopsis plants inoculated with B. cinerea; format: in vivo; details: transgenic Arabidopsis vs Col-0 or Col-0 efr, 48 h post-inoculation
Procedure: as §2

[5] = system: Pectobacterium carotovorum subsp. carotovorum; assay: Infection assay with Pectobacterium carotovorum on transgenic Arabidopsis leaves; format: in vivo; details: transgenic Arabidopsis vs Col-0 or Col-0 efr, 24 h, 5×10^7 CFU/ml
Procedure: Inoculum concentration was 5×10^7 CFU/ml). Values are means±SE of at least 16 lesions. Asterisks indicate statistically significant differences against control plants (Col-0 or Col-0 efr), according to Student's t test (*, p<0.0005).
as §3, with “After 16 h of growth at 28° C. on rotary shaker at 250 rpm, bacterial cells were harvested by centrifugation and the pellet was resuspended in 50 mM potassium phosphate buffer pH 7.0 corresponding to 5×10^7 CFU/ml.” left out
For infection, fully developed leaves of 4 week old Arabidopsis plants were detached and placed in 0.8% agar Petri dishes. […] Symptoms were scored measuring the area of macerated tissue after 24 hour post inoculation at 22° C. and 12 h photoperiod. Area was measured by ImageJ software. […]

[6] = system: transgenic Arabidopsis leaves; assay: Constitutive activation of defense responses (H2O2, callose) in transgenic plants; format: cell-based, Arabidopsis thaliana; details: no elicitor
Procedure: Leaves were stained with 3,3′-diaminobenzidine (DAB) for H2O2 visualization (upper panel) and with aniline blue for callose visualization (lower panel).
as §1

B1: EWAK: chimera: EFR ectodomain fused to the TM-iJM-kinase portion of WAK1, GFP-fused (protein)
chain: RFSNETDMQALLEFKSQVSENNKREVLASWNHSSPFCNWIGVTCGRRRERVISLNLGGFKLTGVISPSIGNLSFLRLLNLADNSFGSTIPQKVGRLFRLQYLNMSYNLLEGRIPSSLSNCSRLSTVDLSSNHLGHGVPSELGSLSKLAILDLSKNNLTGNFPASLGNLTSLQKLDFAYNQMRGEIPDEVARLTQMVFFQIALNSFSGGFPPALYNISSLESLSLADNSFSGNLRADFGYLLPNLRRLLLGTNQFTGAIPKTLANISSLERFDISSNYLSGSIPLSFGKLRNLWWLGIRNNSLGNNSSSGLEFIGAVANCTQLEYLDVGYNRLGGELPASIANLSTTLTSLFLGQNLISGTIPHDIGNLVSLQELSLETNMLSGELPVSFGKLLNLQVVDLYSNAISGEIPSYFGNMTRLQKLHLNSNSFHGRIPQSLGRCRYLLDLWMDTNRLNGTIPQEILQIPSLAYIDLSNNFLTGHFPEEVGKLELLVGLGASYNKLSGKMPQAIGGCLSMEFLFMQGNSFDGAIPDISRLVSLKNVDFSNNNLSGRIPRYLASLPSLRNLNLSMNKFEGRVPTTGVFRNATAVSVFGNTNICGGVREMQLKPCIVQASPRKRKPLSVRKKVVSGWTTILLVTTIGFLVILLGVACIQQRMKHLKDTKLREQFFEQNGGGMLTQRLSGAGPSNVDVKIFTEDGMKKATNGYAESRILGQGGQGTVYKGILPDNSIVAIKKARLGDSSQVEQFINEVLVLSQINHRNVVKLLGCCLETEVPLLVYEFITNGTLFDHLHGSMIDSSLTWEHRLKIAIEVAGTLAYLHSSASIPIIHRDIKTANILLDVNLTAKVADFGASRLIPMDKEELETMVQGTLGYLDPEYYNTGLLNEKSDVYSFGVVLMELLSGQKALCFKRPQSSKHLVSYFATATKENRLDEIIGGEVMNEDNLKEIQEAARIAAECTRLMGEERPRMKEVAAKLEALRVEKTKHKWSDQYPEENEHLIGGHILSAQGETSSSIGYDSIKNVAILDIETGR
modifications: left off: large carriers
- ethylene accumulation upon stimulation with elfl8 [1]: did not
- development of disease symptoms / susceptibility to Pst DC3000 [2]: confers resistance
- oxidative burst upon treatment with elfl8 [3]: produced an oxidative burst; also recorded: robust oxidative burst
- decrease in the number of living Agrobacterium cells [4]: 30%
- resistance to B. cinerea infection (B. cinerea): not
- resistance to Pectobacterium carotovorum subsp. carotovorum [5]: increased resistance; also recorded: confers resistance
- constitutive activation of defense responses (H2O2 levels, callose deposits) [6]: do not show constitutive activation of defense responses
